Data published in publication PMC5322959.

Target: His6x-tagged hRNF145 RING protein (human) (UniProt Q96MT1)
Assay: SEC; Superdex 75 10/300 column calibrated with a set of standard proteins; elution volume corresponds to an apparent molecular mass of 39 kDa (predicted weight 18 kD)

A stoichiometry N of 2 was found for “His6x-tagged hRNF145 RING protein (from UniProt Q96MT1-1 550-663) (domain or fragment)” in this work.
